Here are results for two molecules from patent US20190375846A1 (ULTRAHUMAN ONE, published 2019).

Test [1] addresses T1, human GITR-Fc (human, UniProt Q9Y5U5 26-161).
T1 construct: Recombinant GITR-Fc; also called hGITR-Fc; hGITR; not shown: Fc part
T1 sequence (looked up): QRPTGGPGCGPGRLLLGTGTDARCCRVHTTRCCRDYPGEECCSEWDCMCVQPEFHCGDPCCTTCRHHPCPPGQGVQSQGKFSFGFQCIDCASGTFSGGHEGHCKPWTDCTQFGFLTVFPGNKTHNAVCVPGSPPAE
Briefly: direct titration ELISA, coated human GITR-Fc, IgG1. Here is the method: (§1) To coat Greiner Bio-One High bind ELISA plates, target proteins were diluted to 1 μg/ml in carbonate buffer and added at 100 μl per well, at 4° C., o/n. Coated plates were washed 3× with PBS pH7.4, blocked with 1% BSA in PBS (380 μl/well) for 1 hr at RT, then washed 3× with PBS-Tween 20 (PBST). GITR antibodies (100 μl/well; diluted in PBST) were then added and then incubated 1 hr at RT. Plates were then washed 3× with PBST and goat anti-human kappa chain-HRP added (100 μl/well) at RT, for 1 hr. Plates were then washed 3× with PBST and twice with PBS before the addition of 100 μl TMB per well. Reactions were stopped by adding 100 μl 2M H₂SO₄/well and OD was read on a plate reader at 450 nm. IgG binding analysis via ELISA on negatively charged biomolecular surfaces were performed as previously described (see Mouquet et al., 2010, Nature 467: 591-595).
Retention of GITR-binding function in the purified IgG1 proteins was first examined by titration in direct binding ELISA against human GITR-Fc. […] Importantly, the >100-fold loss of binding function in the VH2 IgG family further illustrated that the HCDR1 could not be fully germ-lined a priori to match the native sequence of the human germline HCDR1 found in the framework used for grafting (IGHV3-7).
In general terms: In an ELISA, binding on a coated surface is turned into a signal by an enzyme label.

The target of test [2] is T2, cynomolgus monkey GITR-Fc (cynomolgus monkey (Macaca fascicularis)).
T2 construct: also called cyno GITR-Fc; cGITR-Fc
In words: direct titration ELISA on coated cyno GITR-Fc, IgG1 0.001-1 µg/ml, OD 450 nm. Here is the method: as §1
The 17 purified IgGs described above were then tested for binding to human and cyno GITR-Fc in direct titration ELISA format.

The target of test [3] is T1, human GITR-Fc. In words: HTRF competition: unlabelled IgG1 titrated 0.003-100 µg/ml against terbium-labelled VH1/VL1 IgG on biotinylated human GITR-Fc with SA-XL665, 665/615 ratio. How it is done: A competition HTRF assay was established to examine epitope competition against VH1/VL1 IgG by grafted and library-derived clones. The purified VH1/VL1 IgG was labelled with terbium using a labelling kit (CisBio) per the manufacturers instructions. The final reaction mix contained biotinylated human GITR-Fc, SA-XL665 (CisBio), terbium-labelled parental […], and competitor IgG of interest, prepared as described above, in a total reaction volume of 20 μl in 1× assay buffer [50 mM sodium phosphate, pH 7.5, 400 mM potassium fluoride, and 0.1% BSA (w/v)]. Reagents were added sequentially on a MiniTrak Liquid Handling Platform (Perkin-Elmer) into 384-well low-volume black plates (Nunc). Reactions proceeded for 1 h at room temperature, and plates were subsequently read on a plate reader with excitation at 340 nm and two emission readings at 615 nm (measuring input donor fluorescence from VH1-VL1-cryptate) and 665 nm (measuring output acceptor fluorescence from SAXL665). Readings were expressed as 665 nm/615 nm ratios.
To examine the competition of the library-derived clones with the unaltered, closest-germline grafted CDRs of VH1/VL1 IgG, an Homogeneous Time Resolved Fluorescence (HTRF) assay was established. This assay incorporated terbium-labelled VH1/VL1 IgG, Biotinylated hGITR-Fc and streptavidin-XL665, in solution-phase binding. […]

A value given as a limit tells only on which side of the number the result lay.

B1: chimeric anti-GITR IgG1 mVH/mVL (6C8 murine v-domains) (antibody, V domains shown)
VH: QVTLKESGPGILKPSQTLSLTCSFSGFSLSTSGMGVGWIRQPSGKGLEWLAHIWWDDDKYYNPSLKSQLTISKDTSRNQVFLKITSVDTADAATYYCARTRRYFPFAYWGQGTLVTVSS
VL: DIVMTQSQKFMSTSVGDRVSVTCKASQNVGTNVAWYQQKPGQSPKALIYSASYRYSGVPDRFTGSGSGTDFTLTINNVHSEDLAEYFCQQYNTDPLTFGAGTKLEIK
notes: Full-length human IgG1, kappa; also called GITR-mVH/mVL; chimeric IgG
As for B1, in the test with human GITR-Fc [1], the EC50 was no less than 0.004 µg/mL. Further, the “EC50 (read off the curve)” value in test [2] was roughly 0.05 µg/mL.

B2: D-A6 IgG1 (antibody, V domains shown)
VH: EVQLVESGGGLVQPGGSLRLSCAASGFSLSTSGYGVGWVRQAPGKGLEWLAHIWWDDDKYYVDSVKGRFTISRDNAKNSLYLQMNSLRAEDTAVYYCARTRQYFPFAYWGQGTLVTVSS
VL: EIVLTQSPATLSLSPGERATLSCRASQSVGSNLAWYQQKPGQAPRLLIYSASYRYTGIPARFSGSGSGTDFTLTISSLEPEDFAVYYCQQYSTDPLTFGGGTKVEIK
notes: Human IgG1
B2: the “IC50 (read off the curve)” value in the test with human GITR-Fc [3] is roughly 1 µg/mL.

A word on the EC50: it is the concentration giving half of the maximal effect. Broadly, the EC50 (read off the curve) is the concentration needed to bring the measured effect to its halfway point.
